Experimental data reported in paper PMC12912425, “Collagen-targeted tracers for molecular imaging of atrial fibrosis and sensitive detection of atrial fibrillation” (npj Cardiovascular Health, 2025).

Tests used:
[1] = Blood clearance of Cy5.5-labeled tracers after IV injection; format: in vivo, mouse; conditions: Cy5.5-conjugated tracer 0.5 mg/kg IV; mixed male/female 'AF + HF' and control mice, 28-31 weeks; blood NIR fluorescence at 2-4, 12, 240 min; one-phase decay fit; Mean±SEM, n=4 (EP-3533), n=8 (T-peptide)
Protocol: ‘AF + HF’ mice and non-transgenic controls (28–31 weeks) were intravenously injected with Cy5.5-labeled T-peptide or EP-3533 (0.5 mg/kg), as described above. Blood samples (2.5 µl) were collected from the opposite tail vein at 2–4, 12 and 240 min, and diluted in 47.5 µl of citrated PBS (0.32% w/v sodium citrate). 50 µl samples were transferred into 96-well plates (Optiplate, black-walled, transparent bottom; PerkinElmer, MA, USA) and scanned on the Odyssey CLx NIRF scanner using the ‘Manual L1’ intensity and 3 mm focus offset settings. Following subtraction of unlabeled blood background, the total fluorescence per well was plotted against time. The blood fluorescence levels at t = 0 and half-life were extrapolated from a one-phase decay non-linear regression, and the data was presented as percentage from the value of t = 0[26].

Mouse plasma stability = format: in vitro ADME; conditions: Cy5.5-T-peptide 100 µg in 200 µL naïve C57BL/6 mouse plasma (citrated), 37 °C, acetonitrile precipitation, HPLC C18, 280 nm
Protocol: Cy5.5-T-Peptide (100 µg, 10 µL in PBS) was added to 200 µL of naïve C57BL/6 mouse plasma and the sample was incubated at 37 °C over 4 h. Aliquots (40 µL) were taken from the mixture at 5, 10, 30, 60 and 240 min, and then added to 40 µL of acetonitrile. The formed precipitates were separated by centrifugation and the supernatant was analyzed by HPLC. The percentage of decomposition at each timepoint was then calculated from the chromatograms (Supplementary Fig. 1). The HPLC conditions were: Phenomenex Luna® 5 µm C18(2) 100 Å, LC Column 150 ×4.6 mm at a flow rate of 1 mL/min (Method: 5–95% buffer B to A over 20 min, λabs = 280 nm).

[2] = tested on: MMP-2-degraded collagen IV
Protocol: Ex vivo fluorescent imaging was performed according to our published protocol[26]. In brief, fluorescently-tagged EP-3533 or the T-peptide were injected intravenously into mice at 0.5 mg/kg via the tail vein. The S-peptide was delivered at 0.466 mg/kg, being the identical mole equivalent to the T-peptide (0.258 µmol/kg). Injections were performed by a person blinded to the administered substance. Animals were humanely euthanised 4 h post-injection by an overdose of ketamine (300 mg/kg) and xylazine (30 mg/kg) and perfused via the heart with 20 ml of PBS. The liver, lung, spleen, kidney, brain, thigh muscle and the heart were next harvested and the atria separated from the ventricles. Organs were then scanned on the Odyssey CLx NIRF 2-D scanner (Li-Cor Biosciences, NE, USA) at 169 µm resolution using the ‘Manual L1’ or ‘L2’ intensity and 0.5 mm focus offset settings. A noninjected mouse served for background correction. The mean fluorescence intensity value per pixel (1 pixel = 169 × 169 µm = 0.0285 mm^2) were then extracted from regions of interest using Image Studio 5.2 software (Li-Cor Biosciences).

[3] = 'AF + HF' mice, Cy5.5 conjugates equimolar 0.258 µmol/kg IV, 4 h, ex vivo NIR, S-peptide signal corrected for brightness, n=5 per group

In the case of TLTYTWS [Cy5.5-T-peptide], the “blood (circulating) half-life” value [1] is reported as 9.23 ± 0.9 min, the “tracer remaining intact after 60 min in mouse plasma” value (Mouse plasma stability; 60 min) is reported as 60% and the “tracer remaining intact after 4 h in mouse plasma” value (Mouse plasma stability; 240 min) is reported as 22%. The “T-peptide binding in atria relative to the S-peptide” value [2, 3] was 1.72 fold, the “T-peptide binding in ventricles relative to the S-peptide” value [2, 3] was 1.78 fold and the “atria/ventricles retention in 'AF + HF' mice” value ([2]; mouse, in vivo) was 2.61 fold.
